The target of the assay is Spt16/Pob3 heterodimer (yeast FACT), full length (yeast) (UniProt P32558).
Chain of UniProt P32558 (P32558 whole entry, chain 1 of 2): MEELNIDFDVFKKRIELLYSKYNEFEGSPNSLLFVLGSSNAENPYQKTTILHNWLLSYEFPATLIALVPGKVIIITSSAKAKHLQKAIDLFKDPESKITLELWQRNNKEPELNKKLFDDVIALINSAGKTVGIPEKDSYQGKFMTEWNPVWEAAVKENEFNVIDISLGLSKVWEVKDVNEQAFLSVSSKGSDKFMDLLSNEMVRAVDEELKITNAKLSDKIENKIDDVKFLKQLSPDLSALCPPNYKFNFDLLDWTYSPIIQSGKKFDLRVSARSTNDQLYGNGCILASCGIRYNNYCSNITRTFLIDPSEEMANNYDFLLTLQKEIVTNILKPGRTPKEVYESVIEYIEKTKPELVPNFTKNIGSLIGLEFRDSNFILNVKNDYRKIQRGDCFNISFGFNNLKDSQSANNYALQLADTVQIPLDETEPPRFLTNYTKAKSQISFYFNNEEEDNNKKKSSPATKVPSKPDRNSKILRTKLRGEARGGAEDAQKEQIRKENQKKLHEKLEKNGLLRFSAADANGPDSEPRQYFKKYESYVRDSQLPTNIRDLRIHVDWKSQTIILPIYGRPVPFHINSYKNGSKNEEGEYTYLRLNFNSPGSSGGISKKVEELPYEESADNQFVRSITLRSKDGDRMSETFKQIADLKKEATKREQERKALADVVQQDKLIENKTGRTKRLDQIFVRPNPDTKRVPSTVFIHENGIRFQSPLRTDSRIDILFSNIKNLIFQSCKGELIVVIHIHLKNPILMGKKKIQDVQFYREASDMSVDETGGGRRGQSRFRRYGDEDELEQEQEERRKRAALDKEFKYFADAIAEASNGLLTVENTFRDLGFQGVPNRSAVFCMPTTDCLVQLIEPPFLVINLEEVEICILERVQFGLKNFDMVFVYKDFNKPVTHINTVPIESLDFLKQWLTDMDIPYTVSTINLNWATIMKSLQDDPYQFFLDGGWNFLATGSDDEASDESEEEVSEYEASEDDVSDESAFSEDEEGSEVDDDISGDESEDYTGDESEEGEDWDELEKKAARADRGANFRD
Chain of UniProt P32558 (Q04636 whole entry, chain 2 of 2, further chain): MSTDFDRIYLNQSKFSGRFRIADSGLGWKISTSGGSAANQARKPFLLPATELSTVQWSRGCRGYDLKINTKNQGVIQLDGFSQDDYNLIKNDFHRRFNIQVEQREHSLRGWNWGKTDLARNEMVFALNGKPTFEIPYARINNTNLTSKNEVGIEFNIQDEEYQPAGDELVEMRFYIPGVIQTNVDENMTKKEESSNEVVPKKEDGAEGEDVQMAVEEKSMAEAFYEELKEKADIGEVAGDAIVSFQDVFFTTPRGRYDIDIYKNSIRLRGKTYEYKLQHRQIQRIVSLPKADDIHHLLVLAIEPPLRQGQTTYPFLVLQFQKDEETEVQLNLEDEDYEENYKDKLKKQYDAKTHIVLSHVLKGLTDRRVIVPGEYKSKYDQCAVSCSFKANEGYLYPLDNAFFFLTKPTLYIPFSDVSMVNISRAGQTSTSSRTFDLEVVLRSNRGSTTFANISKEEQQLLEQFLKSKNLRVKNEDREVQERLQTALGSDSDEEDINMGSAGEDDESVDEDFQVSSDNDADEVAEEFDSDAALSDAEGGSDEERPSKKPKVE

Regarding “Nhp6 (non-histone protein), HMGB-domain factor (from UniProt P11632 1-93) (natural protein)”, the fraction of FACT particles in the open conformation (>90°) by negative-stain EM; 36% for FACT alone came to 51%.

(Values after publication PMC8748794.)
